Molecular target: H chains of human 7S γ-globulin reduced without alkylation (human)
Assay: co-sedimentation

yield of doubly labeled 7S material: 30 per cent
Substance: L chains of human 7S γ-globulin reduced without alkylation (natural protein)

Source: publication PMC2137744
